Biological target: streptavidin (UniProt P22629 P22629:25-183)
Experiment: EMSA; half-maximum binding (C1/2) via biotin on the adduct; reversed by free d-biotin; 100 mM NaCl, MgCl2, pH 7.4, room temperature
Details: tags: Pierce; chain copies: 4; label: 5' 32P
Method: Gel Mobility Shift Assay. […] A constant amount of the lesioned U-17 (3200 cpm, ~0.1 nM) was used in each incubation, with the concentration of streptavidin varied from 0 to 50 nM. Free d-biotin (0.4 mM) was added into the incubation(s) where indicated. After electrophoresis, the gel was dried and exposed to x-ray film with an intensifying screen. The dried gel was also exposed to a PhorphorImager screen and the data were analyzed with IMAGEQUANT software (Molecular Dynamics, Sunnyvale, Calif.).

streptavidin, sequence (P22629 25-183, one chain of several): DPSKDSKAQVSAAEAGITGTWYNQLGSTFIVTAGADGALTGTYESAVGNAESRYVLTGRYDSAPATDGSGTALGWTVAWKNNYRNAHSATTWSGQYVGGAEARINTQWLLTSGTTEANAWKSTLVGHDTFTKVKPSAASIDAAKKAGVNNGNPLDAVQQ

B1: TMP-biotin monoadducted U-17 (dsDNA)
DNA 1: CGGCCGTACGUGCGCCG
DNA 2: CGGCGCACGTACGGCCG
modifications: TMP-biotin (psoralen-biotin) monoadduct at T7 of the central TA; deoxyuridine at position 11
  Kd: ~1.5 nM
